The chains are these.
B1: PAR1-Venus [mouse] / RGS2-Luciferase [not stated] (parent)
chain 1: MQSAMFLAVQHDCRPMDKSAGSGHKSEEKREKMKRTLLKDWKTRLSYFLQNSSTPGKPKTGKKSKQQAFIKPSPEEAQLWSEAFDELLASKYGLAAFRAFLKSEFCEENIEFWLACEDFKKTKSPQKLSSKARKIYTDFIEKEAPKEINIDFQTKTLIAQNIQEATSGCFTTAQKRVYSLMENNSYPRFLESEFYQDLCKKPQITTEPHAT
chain 2: SFFLRNPSENTFELVPLGDEEEEEKNESVLLEGRAVYLNISLPPHTPPPPFISEDASGYLTSPWLTLFMPSVYTIVFIVSLPLNVLAIAVFVLRMKVKKPAVVYMLHLAMADVLFVSVLPFKISYYFSGTDWQFGSGMCRFATAAFYGNMYASIMLMTVISIDRFLAVVYPIQSLSWRTLGRANFTCVVIWVMAIMGVVPLLLKEQTTRVPGLNITTCHDVLSENLMQGFYSYYFSAFSAIFFLVPLIVSTVCYTSIIRCLSSSAVANRSKKSRALFLSAAVFCIFIVCFGPTNVLLIVHYLFLSDSPGTEAAYFAYLLCVCVSSVSCCIDPLIYYYASSECQRHLYSILCCKESSDPNSCNSTGQLMPSKMDTCSSHLNNSIYKKLLA

In one test the parent is B1. The test is described as follows: BRET assay in live COS7 cells. The settings on record: with RGS2-Luciferase; RGS2-Luc 35 ng; PAR1R205A-Ven 1.5 µg; no Gα11; no TFLLR; parent: 0.028; read off a plot. On the technique in general: In BRET a luciferase serves as donor, and the signal depends on an acceptor being close.
On to chain 2 R164A, for which the response is 0.032.

Still in this test, the particulars now being: with RGS2-Luciferase; RGS2-Luc 35 ng; PAR1R205A-Ven 1.5 µg; no Gα11; with TFLLR; parent: 0.048; read off a plot.
In the case of chain 2 R164A, the response came out at 0.037.

The same test, now with this note: with RGS2-Luciferase; RGS2-Luc 35 ng; PAR1R205A-Ven 1.5 µg; with 0.5 µg untagged Gα11; no TFLLR; parent: 0.062; read off a plot.
Consider chain 2 R164A, for which the response turned out to be 0.047.

Still in this test, the particulars now being: with RGS2-Luciferase; RGS2-Luc 35 ng; PAR1R205A-Ven 1.5 µg; with 0.5 µg untagged Gα11; with TFLLR; parent: 0.086; read off a plot.
Turning to chain 2 R164A, the response is 0.048.

The values are drawn from paper PMC3990635.
